Starred links: 1 amine or outer side, 2 acyl side, 3 side chain; linkers in the order of their positions; H or OH if unused. Non-standard residues stand in square brackets, D forms with d. Groups on a side chain read outwards from the residue. *: point of attachment. γGlu = O=C(O)[C@H](CCC(=O)[*:2])N[*:1]; Palmitoyl = CCCCCCCCCCCCCCCC(=O)*; NMeS = CN[C@@H](CO)C(=O)O; Ac4c = NC1(C(=O)O)CCC1; Aib = CC(C)(N)C(=O)O
What was measured:
[1] = biological target: T1, human glucagon receptor (Glucagon-R) (Homo sapiens, UniProt P47871); assay: Glucagon receptor efficacy assay (cAMP AlphaScreen, CHO cells); type: cell-based; details: cAMP formation, CHO cells expressing human Glucagon-R; read-out: EC50 hGCGR CHO-K1
T1 construct: expressed in transfected cells
Description: The mammalian expression vectors encoding the Glucagon-R or the GLP-1-R were transfected into Chinese hamster ovary (CHO) cells by the Attractene method. Stably expressing clones were obtained by Zeocin selection (250 μg/mL) upon limited dilution of cells resistant to the selection pressure. […] One Glucagon-R expressing clone and one GLP-1-R expressing clone were chosen for compound profiling.
CHO cells expressing the human Glucagon-R, or human GLP-1-R were seeded 24 hours prior to the assay at 30,000 cells per well in 96-well microtiter plates in culture in 100 μl growth medium. On the day of analysis, growth medium was removed and the cells were washed once with 200 μl of assay buffer (Krebs-Ringer-buffer—KRBH). The buffer was removed and the cells were incubated for 15 min at room temperature in 10 μl KRBH (KRBH+10 mM HEPES, 5 mM NaHCO3, 0.1% (V/V) BSA) with 0.1 mM IBMX in deionized water containing increasing concentrations of test peptides. The reaction was stopped by the addition of lysis buffer (0.1% w/v BSA, 5 mM HEPES, 0.3% v/v Tween-20). After cell lysis for 10 min at room temperature, lysates were transferred to 384-well plates and 10 μl of acceptor/donorbead mixture as contained in the AlphaScreen™ cAMP Functional Assay Kit was added. After one hour of incubation at room temperature in the dark, the cAMP content was determined applying the AlphaScreen™ cAMP Functional Assay Kit from Perkin-Elmer according to manufacturer instructions. […] The GLP-1/glucagon ratio is calculated as defined earlier.

[2] = biological target: human glucagon receptor (Glucagon-R) (human, UniProt P47871 26-477); assay: cell-based or functional assay
[3] = biological target: human glucagon-like peptide 1 receptor (GLP-1R) (human, UniProt P43220 24-463); assay: cell-based or functional assay
[4] = biological target: T2, endogenous GLP-1 receptor of a murine insulinoma cell line (murine, UniProt O35659 22-463); assay: cell-based or functional assay
T2 sequence (looked up): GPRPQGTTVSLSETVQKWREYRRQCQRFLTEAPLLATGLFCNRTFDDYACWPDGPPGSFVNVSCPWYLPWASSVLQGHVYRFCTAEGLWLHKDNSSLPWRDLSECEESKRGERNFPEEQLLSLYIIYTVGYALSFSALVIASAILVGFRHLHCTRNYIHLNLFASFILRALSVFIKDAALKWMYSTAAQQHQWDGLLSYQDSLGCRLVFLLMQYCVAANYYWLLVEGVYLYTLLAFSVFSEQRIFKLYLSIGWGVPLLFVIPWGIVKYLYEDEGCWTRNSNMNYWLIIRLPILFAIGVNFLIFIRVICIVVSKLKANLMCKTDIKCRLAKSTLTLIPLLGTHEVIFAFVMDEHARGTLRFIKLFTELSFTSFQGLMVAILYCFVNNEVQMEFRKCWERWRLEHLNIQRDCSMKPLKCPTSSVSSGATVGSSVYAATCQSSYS

[5] = biological target: endogenous glucagon receptor of primary rat hepatocytes (rat, UniProt P30082 27-485); assay: cell-based or functional assay
endogenous glucagon receptor of primary rat hepatocytes, sequence (P30082 27-485): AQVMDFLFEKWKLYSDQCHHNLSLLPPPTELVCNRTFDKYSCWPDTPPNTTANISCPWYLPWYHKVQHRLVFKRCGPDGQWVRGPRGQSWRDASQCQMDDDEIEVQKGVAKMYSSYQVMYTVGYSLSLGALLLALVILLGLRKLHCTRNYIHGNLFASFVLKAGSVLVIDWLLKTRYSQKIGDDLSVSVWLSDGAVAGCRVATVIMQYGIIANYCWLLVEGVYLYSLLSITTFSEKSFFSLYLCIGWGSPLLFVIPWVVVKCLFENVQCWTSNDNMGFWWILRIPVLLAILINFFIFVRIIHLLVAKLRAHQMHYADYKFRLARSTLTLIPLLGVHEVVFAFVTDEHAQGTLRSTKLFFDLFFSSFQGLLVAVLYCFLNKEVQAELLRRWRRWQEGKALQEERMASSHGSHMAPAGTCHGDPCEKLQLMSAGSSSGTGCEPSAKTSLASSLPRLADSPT

human glucagon receptor (Glucagon-R) (human, UniProt P47871 26-477), sequence (P47871 26-477): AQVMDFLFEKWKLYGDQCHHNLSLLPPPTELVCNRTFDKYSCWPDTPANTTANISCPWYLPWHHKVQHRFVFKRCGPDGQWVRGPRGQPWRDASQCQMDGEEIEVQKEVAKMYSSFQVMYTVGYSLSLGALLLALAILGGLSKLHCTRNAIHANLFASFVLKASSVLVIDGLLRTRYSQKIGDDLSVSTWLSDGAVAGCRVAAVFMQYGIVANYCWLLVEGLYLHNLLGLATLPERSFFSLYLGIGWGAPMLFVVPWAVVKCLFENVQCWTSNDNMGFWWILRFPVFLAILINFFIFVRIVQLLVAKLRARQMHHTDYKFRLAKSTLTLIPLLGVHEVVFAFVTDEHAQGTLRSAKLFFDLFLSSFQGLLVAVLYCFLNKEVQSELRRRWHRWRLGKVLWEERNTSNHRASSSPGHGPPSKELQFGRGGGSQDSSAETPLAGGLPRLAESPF
T1 sequence (P47871 26-477): as above

CCCCCCCCCCCCCCCC(=O)N[C@@H](CCC(=O)NCCCC[C@H](NC(=O)[C@H](CCC(=O)O)NC(=O)[C@H](CC(=O)O)NC(=O)[C@H](CC(C)C)NC(=O)[C@H](Cc1ccc(O)cc1)NC(=O)[C@H](CCCCN)NC(=O)[C@H](CO)NC(=O)[C@H](Cc1ccc(O)cc1)NC(=O)[C@H](CC(=O)O)NC(=O)[C@H](CO)NC(=O)[C@@H](NC(=O)[C@H](Cc1ccccc1)NC(=O)[C@@H](NC(=O)CNC(=O)[C@H](Cc1c[nH]cn1)NC(=O)C1(NC(=O)[C@@H](N)Cc2c[nH]cn2)CCC1)[C@@H](C)O)[C@@H](C)O)C(=O)N[C@@H](C)C(=O)N[C@@H](C)C(=O)N[C@@H](CCCCN)C(=O)N[C@@H](CC(=O)O)C(=O)N[C@@H](Cc1ccccc1)C(=O)N[C@H](C(=O)N[C@@H](CCC(=O)O)C(=O)N[C@@H](Cc1c[nH]c2ccccc12)C(=O)N[C@@H](CC(C)C)C(=O)N[C@@H](CCC(=O)O)C(=O)N[C@@H](CO)C(=O)N[C@@H](C)C(N)=O)[C@@H](C)CC)C(=O)O [Compound 15]
EC50 [1]: 0.1 nM

B1: Compound 17: H-H-Aib-QGTFTSDYSKYLDE-K(Hexadecanoyl-isoGlu)-AAKDFIEWLEEE-NH2 (peptide)
peptide: H-H[Aib]QGTFTSDYSKYLDEK([γGlu-Palmitoyl])AAKDFIEWLEEE-NH2
SMILES: CCCCCCCCCCCCCCCC(=O)N[C@@H](CCC(=O)NCCCC[C@H](NC(=O)[C@H](CCC(=O)O)NC(=O)[C@H](CC(=O)O)NC(=O)[C@H](CC(C)C)NC(=O)[C@H](Cc1ccc(O)cc1)NC(=O)[C@H](CCCCN)NC(=O)[C@H](CO)NC(=O)[C@H](Cc1ccc(O)cc1)NC(=O)[C@H](CC(=O)O)NC(=O)[C@H](CO)NC(=O)[C@@H](NC(=O)[C@H](Cc1ccccc1)NC(=O)[C@@H](NC(=O)CNC(=O)[C@H](CCC(N)=O)NC(=O)C(C)(C)NC(=O)[C@@H](N)Cc1c[nH]cn1)[C@@H](C)O)[C@@H](C)O)C(=O)N[C@@H](C)C(=O)N[C@@H](C)C(=O)N[C@@H](CCCCN)C(=O)N[C@@H](CC(=O)O)C(=O)N[C@@H](Cc1ccccc1)C(=O)N[C@H](C(=O)N[C@@H](CCC(=O)O)C(=O)N[C@@H](Cc1c[nH]c2ccccc12)C(=O)N[C@@H](CC(C)C)C(=O)N[C@@H](CCC(=O)O)C(=O)N[C@@H](CCC(=O)O)C(=O)N[C@@H](CCC(=O)O)C(N)=O)[C@@H](C)CC)C(=O)O
EC50 hGCGR CHO-K1 [nM] (cAMP, AlphaScreen) [2]: 0.08 nM | EC50 hGLP-1R CHO-K1 [nM] (cAMP, AlphaScreen) [3]: 0.27 nM | EC50 [nM] (cAMP in murine insulinoma cell line) [4]: 0.21 nM | EC50 [nM] (inhibition of glycogen synthesis rate in primary rat hepatocytes) [5]: 2.26 nM

B2: Compound 14: H-H-Ac4c-QGTFTSDYSKYLDE-K(Hexadecanoyl-isoGlu)-AAKDFIEWLESA-NH2 (peptide)
peptide: H-H[Ac4c]QGTFTSDYSKYLDEK([γGlu-Palmitoyl])AAKDFIEWLESA-NH2
SMILES: CCCCCCCCCCCCCCCC(=O)N[C@@H](CCC(=O)NCCCC[C@H](NC(=O)[C@H](CCC(=O)O)NC(=O)[C@H](CC(=O)O)NC(=O)[C@H](CC(C)C)NC(=O)[C@H](Cc1ccc(O)cc1)NC(=O)[C@H](CCCCN)NC(=O)[C@H](CO)NC(=O)[C@H](Cc1ccc(O)cc1)NC(=O)[C@H](CC(=O)O)NC(=O)[C@H](CO)NC(=O)[C@@H](NC(=O)[C@H](Cc1ccccc1)NC(=O)[C@@H](NC(=O)CNC(=O)[C@H](CCC(N)=O)NC(=O)C1(NC(=O)[C@@H](N)Cc2c[nH]cn2)CCC1)[C@@H](C)O)[C@@H](C)O)C(=O)N[C@@H](C)C(=O)N[C@@H](C)C(=O)N[C@@H](CCCCN)C(=O)N[C@@H](CC(=O)O)C(=O)N[C@@H](Cc1ccccc1)C(=O)N[C@H](C(=O)N[C@@H](CCC(=O)O)C(=O)N[C@@H](Cc1c[nH]c2ccccc12)C(=O)N[C@@H](CC(C)C)C(=O)N[C@@H](CCC(=O)O)C(=O)N[C@@H](CO)C(=O)N[C@@H](C)C(N)=O)[C@@H](C)CC)C(=O)O
EC50 hGCGR CHO-K1 [nM] (cAMP, AlphaScreen) [2]: 18.3 nM | EC50 hGLP-1R CHO-K1 [nM] (cAMP, AlphaScreen) [3]: 0.68 nM | EC50 [nM] (cAMP in murine insulinoma cell line) [4]: 0.13 nM | EC50 [nM] (inhibition of glycogen synthesis rate in primary rat hepatocytes) [5]: 0.06 nM

B3: Compound 2: H-H-NMeSer-QGTFTSDYSKYLDS-K(Hexadecanoyl-isoGlu)-AAHDFVEWLLSA-NH2 (peptide)
peptide: H-H[NMeS]QGTFTSDYSKYLDSK([γGlu-Palmitoyl])AAHDFVEWLLSA-NH2
SMILES: CCCCCCCCCCCCCCCC(=O)N[C@@H](CCC(=O)NCCCC[C@H](NC(=O)[C@H](CO)NC(=O)[C@H](CC(=O)O)NC(=O)[C@H](CC(C)C)NC(=O)[C@H](Cc1ccc(O)cc1)NC(=O)[C@H](CCCCN)NC(=O)[C@H](CO)NC(=O)[C@H](Cc1ccc(O)cc1)NC(=O)[C@H](CC(=O)O)NC(=O)[C@H](CO)NC(=O)[C@@H](NC(=O)[C@H](Cc1ccccc1)NC(=O)[C@@H](NC(=O)CNC(=O)[C@H](CCC(N)=O)NC(=O)[C@H](CO)N(C)C(=O)[C@@H](N)Cc1c[nH]cn1)[C@@H](C)O)[C@@H](C)O)C(=O)N[C@@H](C)C(=O)N[C@@H](C)C(=O)N[C@@H](Cc1c[nH]cn1)C(=O)N[C@@H](CC(=O)O)C(=O)N[C@@H](Cc1ccccc1)C(=O)N[C@H](C(=O)N[C@@H](CCC(=O)O)C(=O)N[C@@H](Cc1c[nH]c2ccccc12)C(=O)N[C@@H](CC(C)C)C(=O)N[C@@H](CC(C)C)C(=O)N[C@@H](CO)C(=O)N[C@@H](C)C(N)=O)C(C)C)C(=O)O
EC50 hGCGR CHO-K1 [nM] (cAMP, AlphaScreen) [2]: 0.24 nM | EC50 hGLP-1R CHO-K1 [nM] (cAMP, AlphaScreen) [3]: 0.92 nM | EC50 [nM] (cAMP in murine insulinoma cell line) [4]: 0.52 nM | EC50 [nM] (inhibition of glycogen synthesis rate in primary rat hepatocytes) [5]: 5.4 nM

B4: Compound 13: H-HPQGTFTSDYSKYLDE-K(Hexadecanoyl-isoGlu)-AAKDFIEWLESA-NH2 (peptide)
peptide: H-HPQGTFTSDYSKYLDEK([γGlu-Palmitoyl])AAKDFIEWLESA-NH2
SMILES: CCCCCCCCCCCCCCCC(=O)N[C@@H](CCC(=O)NCCCC[C@H](NC(=O)[C@H](CCC(=O)O)NC(=O)[C@H](CC(=O)O)NC(=O)[C@H](CC(C)C)NC(=O)[C@H](Cc1ccc(O)cc1)NC(=O)[C@H](CCCCN)NC(=O)[C@H](CO)NC(=O)[C@H](Cc1ccc(O)cc1)NC(=O)[C@H](CC(=O)O)NC(=O)[C@H](CO)NC(=O)[C@@H](NC(=O)[C@H](Cc1ccccc1)NC(=O)[C@@H](NC(=O)CNC(=O)[C@H](CCC(N)=O)NC(=O)[C@@H]1CCCN1C(=O)[C@@H](N)Cc1c[nH]cn1)[C@@H](C)O)[C@@H](C)O)C(=O)N[C@@H](C)C(=O)N[C@@H](C)C(=O)N[C@@H](CCCCN)C(=O)N[C@@H](CC(=O)O)C(=O)N[C@@H](Cc1ccccc1)C(=O)N[C@H](C(=O)N[C@@H](CCC(=O)O)C(=O)N[C@@H](Cc1c[nH]c2ccccc12)C(=O)N[C@@H](CC(C)C)C(=O)N[C@@H](CCC(=O)O)C(=O)N[C@@H](CO)C(=O)N[C@@H](C)C(N)=O)[C@@H](C)CC)C(=O)O
EC50 hGCGR CHO-K1 [nM] (cAMP, AlphaScreen) [2]: 3.19 nM | EC50 hGLP-1R CHO-K1 [nM] (cAMP, AlphaScreen) [3]: 0.21 nM | EC50 [nM] (cAMP in murine insulinoma cell line) [4]: 0.14 nM | EC50 [nM] (inhibition of glycogen synthesis rate in primary rat hepatocytes) [5]: 4 nM

B5: Compound 4: H-H-Ac4c-QGTFTSDYSKYLDS-K(Hexadecanoyl-isoGlu)-AAHDFVEWLLSA-NH2 (peptide)
peptide: H-H[Ac4c]QGTFTSDYSKYLDSK([γGlu-Palmitoyl])AAHDFVEWLLSA-NH2
SMILES: CCCCCCCCCCCCCCCC(=O)N[C@@H](CCC(=O)NCCCC[C@H](NC(=O)[C@H](CO)NC(=O)[C@H](CC(=O)O)NC(=O)[C@H](CC(C)C)NC(=O)[C@H](Cc1ccc(O)cc1)NC(=O)[C@H](CCCCN)NC(=O)[C@H](CO)NC(=O)[C@H](Cc1ccc(O)cc1)NC(=O)[C@H](CC(=O)O)NC(=O)[C@H](CO)NC(=O)[C@@H](NC(=O)[C@H](Cc1ccccc1)NC(=O)[C@@H](NC(=O)CNC(=O)[C@H](CCC(N)=O)NC(=O)C1(NC(=O)[C@@H](N)Cc2c[nH]cn2)CCC1)[C@@H](C)O)[C@@H](C)O)C(=O)N[C@@H](C)C(=O)N[C@@H](C)C(=O)N[C@@H](Cc1c[nH]cn1)C(=O)N[C@@H](CC(=O)O)C(=O)N[C@@H](Cc1ccccc1)C(=O)N[C@H](C(=O)N[C@@H](CCC(=O)O)C(=O)N[C@@H](Cc1c[nH]c2ccccc12)C(=O)N[C@@H](CC(C)C)C(=O)N[C@@H](CC(C)C)C(=O)N[C@@H](CO)C(=O)N[C@@H](C)C(N)=O)C(C)C)C(=O)O
EC50 hGCGR CHO-K1 [nM] (cAMP, AlphaScreen) [2]: 0.12 nM | EC50 hGLP-1R CHO-K1 [nM] (cAMP, AlphaScreen) [3]: 0.31 nM | EC50 [nM] (cAMP in murine insulinoma cell line) [4]: 0.32 nM | EC50 [nM] (inhibition of glycogen synthesis rate in primary rat hepatocytes) [5]: 0.37 nM

From US9988429B2, “Glucagon analogues” (Zealand Pharma A/S, priority 2013, dated 2018)
